Assay results from a protein production outcome set (Wang et al. 2014).

Assay: label from the status in PepcDB records
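Also: failed if final PepcDB status was selected cloned or expressed and not failed if soluble or beyond.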

Sequence | protein production
MNYVELLGYLAMLLVGLSFLMKDVIKLRFVNALGCICFSIYGILIGSFPVAALNGFVACTNIYFLINNNKD | failed
MNQPFLSVVIATFNVAEVLRECLHSLASQTFRDFEVVIQDGASTDGTLAVAQEAAGRLPRLSLASVADSGIYDAWNRALPRVTGDWVLFLGSDDTLAGPDVLAQCARRLADLPPQVLYACGDALEVYPDGSSRAVTCTAEGATRRMADHIPFCHSSLWHRACLFEARHFDATLRIAADYDLICRTWPHDGVGHTLGITVTHMGVGGVSSSPAHRLRTQWELVRVAARHGHGAFSRRRLVPLCKAVGLWVLCRLAGRRASVMLDRLRVMRGLPPCWTTADPARVGGRDSARGDALEHHHHHH | failed
MSRVKNVVELLETKGVDALYLTKKTNVNYISGFPDEEAYAVICKDGNFLVTDSRYMELAEKVCKDFEIINWHNFDRSVAKAVKSVCDKVGIKKLGFERTNIVFDKYEELKNLIEKDNGELIPTENIVETLRYVKDKDEIKNTRKACEIADKALEELIPHIKAGVSEIELATKLEYFMKMNGAQNIGFETILISGAKTSLLHGKPSDKIIEKGDFVLIDYGAMYNGYISDTTRTFIVGGASEKQLEIYNLVKEAQNVGVENMKAGVHATIPDAEIRKVVKKYEDYYYQGIGHGVGRDVHEEPFIGNYGDKIIEEGCIITMEPGIYFPGWGGVRIEDTVLITKNGPERLTKFPKDLMILDK | failed
MVTKEQVVEALEGIVDPFLHKTLKETSAIKEVTVKPEKEHVSVKIAIVKTGTAEQMQLQSGIVKLVKELGAATVGLRFAEFTEEELAQFAPEQEEEQSESLLSPNSKTTFLAVASGKGGVGKSTVSVNLAVALARLGKKVGIIDADIYGFSVPDMMGIEKRPIVRGDKIIPVERLGVKVISMGFFVEDNAPVIWRGPMLGKMLNHFFTEVEWGDLDYLVLDLPPGTGDVALDVHSMLPSCKEIIVTTPHPTAAFVAARAGAMALRTEHSILGVVENMAYFESKVTGEKEYVFGKGGGDKLATELQTNVLGRIPLQQPDWNKEDFAPSVYEDTHTTGIIYSKIAETVIDKTAVTQKLEHHHHHH | not failed
ARQRFIYIARHRSENIAYYAQALKIDGMVLKAESRRFYPLAEEASQLIGFTDVDDQQGSEGLERSFNSLLVGKNGKQIIRKDARGNVIENIRDEKQYDPQDVMLSID | failed
AKDALLLWCQMKTAGYPNVNVHNFTTSWRDGLAFNAIVHKHRPDLLDFESLKKCNAHYNLQNAFNLAEKELGLTKLLDPEDVNVDQPDEKSIITYVATYYHYFSKMKALAVEGK | not failed
MRRSRSSAAAKLRGQKRSGASGASAAPAASAAAALAPSATRTRRSASQAGSKSQAVEKPPSEKPRLRRSSPRAQEEGPGEPPPPELALLPPPPPPPPTPATPTSSASNLDLGEQRERWETFQKRQKLTSEGAAKLLLDTFEYQGLVKHTGGCHCGAVRFEVWASADLHIFDCNCSICKKKQNRHFIVPASRFKLLKGAEHITTYTFNTHKAQHTFCKRCGVQSFYTPRSNPGGFGIAPHCLDEGTVRSMVTEEFNGSDWEKAMKEHKTIKNMSKE | failed
MGHHHHHHSHMQFFLPDATATHQFGVLLGQRLLASSTLLLEGDLGSGKTTLTQGIAQGLGIPDVVASPTFTLVCEYSEGRLPLYHFDLYRLEAPDVARLLPELYWEGVEFEPGLVVIEWPERLPYRPAAYWSLVLTPSLELEGRQLVLTPVNQDPTTVANLEVQLAAQFRARPATAES | not failed
MNAYYLLAIAVCAEVIATTSMKAVKGLSTPLPLILLITGYAIAFWMLILVMRTIPVGITYAIWSGMGIVMVSVAAYFIYGQKLDLPALLGMGMIVAGVAVIQLFSKTAGH | failed
MILMSNEIKNPKKRRKLVEYANGRSLEEINGTVKVPKNIGFWKALFMYSGPGALVAVGYMDPGNWSTSITGGQNFQYMLMSIILISSLIAMLLQYMAAKLGIVSQMDLAQAIRARTSKSLGIVLWILTELAIMATDIAEVIGAAIALYLLFHIPLAIAVFITVLDVLLLLLLTKIGFRKIEAIVVCLIMVILVVFVYQVALSNPNWGAVFSGLVPTTKAFETSPTIGGMTPLSGSLGIIGATVMPHNLYLHSAVSQTREIDHNDEEDVARTLRFSTWDSNIQLSFAFIVNSLLLVMGVAVFKSGAVQDPSFFGLFHALNDTSTLSNGILIGVAKTGVLSTLFAVALLASGQNSTITGTLTGQVIMEGFIHMRMPLWARRLITRLISVVPVLICVMITSGKGDLQEHEALNQLMNNSQVFLAFALPFSMIPLLMMTDSRVEMGDRFKNSWAVKILGWISVIFLTYLNMTGLPNSITAFFGANPSAGEVELAHIIAYMLVAVVLALLAWTVFELHKGNQRYELEMRSKAEAKEEA | failed
MPFNTLAPQFSRLGPGLVLSIAATGLAFAIHTVFPAVPAMTLAVALGLLSANIPGTAVLTAGRARPGLDFAGKHLMRAGIVLLGLKVSIGDVIGLGWLSLLLIAGVVLLSFAGTYGLARLLRLPGEAALLIATGFSICGASAIGAMAAVRRIKHQDTVLPVALVTLCGTLAIGVLPLLMHPLNLNPEQFGAWTGASVHDVGQVVATAQTAGTSALAIAVVVKLTRVVLLAPVAAAAGVHQRILHVRERSNGKGDAAKSIDGRFPPIVPLFVVGFLSMVAVRSLGWVPPVGLEIAAAVQDILLATALFGLGSAVRVRTLIHTGGRAILVALGSWLLIASLGLGAAWIMIR | failed
MFTETGLKSGRRTMRFARLLLLPLIVIGTLSGCAVNMADIHGFNVISLEQEKELGTKFAAEIEKQYPVYNDPEAQKYVDRLGRRLLTGAREVSFDYVFKVVKDDSVNAFAIPGGRLYVHTGLLKAAQSETEVAAVMAHEISHAVARHGTRQMTQQYGYSLVLSLVLGQNSNMLAQIAGELFGKAGMMSYSRDYENQADFLGVETMSKAGYNPQGMVSFFQKLDTMGQQNPSALTKFFSSHPLTSERIQRVQAEIAQLPPRTYPPVDNTDLQKIRARIKLEHHHHHH | failed
MLNSRRIVVVLPAYNAEKTLEMTYAEIPFEHVDHVLLVDDASRDRTAQVAERLGIKTIVHDRNKGYGANQKTCYRAALDLGADIVIMVHPDYQYTPKLITAMAAMIAYGEFDAVLGSRILGIGALKGGMPLYKYVANRVLTLVENLLLSHKLSEYHTGYRAFSRQVLEQLPLDANGDDFVFDNQMLAQIIWHGYRIGELSCPTKYFEDASSINFRRSVIYGLGVLGTALEFRLARMGLIRSGRFTPRNDQAAAQLEHHHHHH | not failed
MLSFVVMSFLIFVIVMVNEHKAHLSVIQKMILAVVNGSITIILSIIVFYIFYPQNISLFLITAGILTVFVFLYGLLLFLFGFTHRELSYLSKYDKYKFLCKFTIEMFSSLTNHAFLTISAIVLYQIQHPKPTIDFIVMIGMITISVIVVMLLFLKTYSIIIKQLKKLENN | failed
MGFPKLETERLQLRELTLLDAETMFHYFSKESVIRYFGMDSFENIEQAKTTIQTFKNRYEEGSVFRWGIEKKGTGQLIGTCGFHLINHHHKRAEIGYELDDTYWGQGYASEALQAILTYGFETLQLIRIAAVVYVENKASQKLLSKAGFQEEGLLRKHMIQNGVAHDTILYSLLKEEWKK | failed
MNCIIAQSGGPTSVINASVYGLVKANKKLNLYENVYGGLNGIEGILNKKIINLSDLDELQLERFKNSPASGLGSCRYKLKPLSESEDEYLKLLDILNSLNIKAFFYVGGNDSMDTTAKLNAFAKAKNIDIKFFGIPKTIDNDLMHTDHTPGFGSAAKFISTAVLETYLDSKVYTNNGIFIIETMGRDTGWLAASGALATINGNKCADLVYLPERAFSVQSFLTDVARIFKEKKHVYIVASEGLKDENGKFLTETAPNDDSFGHAQLGGVGAYLKNLIIQASITHRVKSLELNTLQRCSMHASSKIDVNEAVMVGQAALEASINSEGGYMVAIRRDSSFPYKSSTFLIEADKIANNIKYFPSEWINEEGNNITEEGLLYLKPLISDFEDRDSLPLYHSFVL | failed
DDGVVAAAAFDADRTDPDTLCVRYITVRQDRQGDRLGARLLRFVRERATERGFEHVSIGVNNPFSYQAAYRAGFCFSG | failed
MIRDVNDNKKKKVDEILSIVKVSSLLFSAMAFLQYTFNLTKYNNKFLAYYSILSILISIFLLSTIYILWSLASLNKYKDHINKIQLIEIILFMIIFIMAILVSGGNSSNNKFLFLFIIITSTIQGGMHRGCVVSVVSSAIILAIDLIFSGNADVNIYFQNDLILAGVFVLTAWTLGFYVKTENDHIKELQTLVNEDGLTGVYNHRYFYDKLREKMHISEVENEKLSLIFMDIDYFKHYNDLYGHQKGDEALKKIGKLLKNIARENDLVARYGGEEFAIILPNTSEEEATKIAERIRNKVEKTYFEGQENQPNANFTVSVGIAVFPDKAKSELELVKCADDALYRAKFFHKNRVETYVSVLDELKRDLNEEENALVASIKTLISIINAKDKYTYSHVERVVIYSRLMAKKLGLSEDEKKQLIYGAYMHDIGKINIPNEILTKKMRLTKEEWEILKQHPKDGVEIIKSVNSLKNVVPLILYHHERYDGFGYPVGLKEKEIPYLARVLTVIDSFDAMTSSRPYNKRKTYDEGLIELERCSGTQFDPEIVGIFSEVVKENINEIQDF | failed
MEERELTLSDILLMFKRRSKLFWLVLVLTVFATGIYLFLATPQYEAYARVKVSTQKGMRLGLSIEGLLGGLSSLLGGGGSQEDEIQIMLSRRNIIAVIDELDLVHKLLDEKDIEKAKKNGLTEDDLKLSLYSYMVEKLITVEPVKNSSILEVKVTWHEPKLAAEIANKIVENYTKISENIAKSQLGAKMDFLEEQIPKVEQELKEAESKLKVFKEQNRIYSVEAQTQVLIDRYASLLQKMEEARIAMEATQKQSEFFSKELKDLDIEIEQIKDSITFDPIISQLKSNMINIQIELAGLMERYTETNPAVVQKKAELQETQKQLEIELKRLLTSQVKKTGNPVYEEALSSLIKAESEKILYQSQYEAFKKLYEDMEKELSKLPELEQKLIELERDYKVKETIYTTLLQAKYESLISEAAITANANVIDWAVPPLEPSKPNKKLTLAIGGVLGIFLGILAVFFAEFSDRRIKSESEAEYLLGLEKIVARVPLTQNEEVMEKALGIPAVKSGKVTFITALEDGAGVSTLAKHMAKLLSKKEKVLLLTEEKVEGTFDRKDVFDLLKNPDVLEELKERYDKIIVDAPSLKRTPDFLPIAEKSDTVYIVIRLEHTLSEDLKTLHTLKKIDGFILNGLTKKNSTYVE | failed
AQGVGVEAILLLRRECQASHEDALHLGLAEHAPVIELQTLRKLDGQAVSLIFHRYSAVYHELLADYQGGSVRQYLAECGLPLSRAQSLIGARLPSREEAGLLLMPRHMPALTVLTVSCDGAGQPVELSRSVSRSDRFQ | failed
MKTEARILKECLAAAAPNCLHSILPPVVRDDQTRSMNKPMESYYHQFLEEFRLPLTNPVLVFSLVLFIILLAPIVSKRFNIPGTVGLILSGVLIGPHSLNLLEKSSAVELFSTIGLLYILLIAGLELDVNDFRKNRYKSALFGLLTFSIPIVLGYPVCRYLLNYPMSTSLLTASMFATHTLVAYPVVSRMGISKNRTVAITVAGTILSDTAVLILLAVIIGYSRGDINHEFWLHLVIALTLFSAIVFIVLPAIARWFFTKLENEKHAHYIFVLAALFFSAFLAKAAGLEPIVGAFAAGLALNPLIPGSSALMNRIEFIGNSLFIPFFLISVGMLVDLRIILSSPIALIIAALLTFVALAGKWLAALSTQKIFGYSAAHRRLIFGLSSSRAAATIAIALVGYRARILDLNILNAIIILILVTCIVSSLVTEKAAKEIVLEENDAAPEKEHAQGDADEQILLPIAENKPSERVLELAVMIREKRSLNPLTILTVVPNDHEAELNVKKAKKELAPTVDFAASFDTSLNIVATIDYNICSGISRAVKESQSNLIIFDWPSRQGFLGRMINDATESIVECTCKTTMICHLTRPLAIHRRIVVICPPFAEKEKGFGQWLRKMSRLSQELTIPLLFHCDRKSRLAIIETLKTSHSTSPVLYEVFKNFREWEDIASRKLHFREDDIVTFVCARRESISYKPFFDLVPEQLEKHVKDISKIMIYPEQFDSAIIEEEYADVVAPKSFPFGASTIRKIREEISGFMKKNQLQIRKKARGKTAATPKRFGFSRKEP | failed
